Test results from patent US9926214B2, “Use of peracetic acid/hydrogen peroxide and peroxide-reducing agents for treatment of drilling fluids, frac fluids, flowback water and disposal water” (Ecolab USA Inc., priority 2012, dated 2018).
Like-named read-outs stand apart in the source and are kept apart here.

Experiments:
[1] = Example 21 hydrogen peroxide decomposition with sequenced POAA and hypochlorite in deionized and contaminated water; type: physicochemical; details: water not containing any biological contamination
Source text: Additional evaluation of the process of using peroxide-reducing agents in sequence was further analyzed as shown in Table 32 using additional water samples, including deionized water (i.e. not contaminated), and the Control (as set forth above as a contaminated water source).
The peracetic acid and sodium hypochlorite are indistinguishable in titration, and are therefore presumed to consist of ½ of the titrateable material; however the focus of the evaluation was solely on the hydrogen peroxide decomposition.

[2] = type: physicochemical
Procedure: Field of use applications were analyzed to determine the amount of a peroxide-reducing enzyme necessary to obtain desired concentrations of both peracid and hydrogen peroxide in a treated water source. EnviroSan (POAA) peracid composition was added to water to reach the targeted POAA concentrations set forth in Table 18, and the concentration of both POAA and H2O2 were confirmed by iodometric titration. Then catalase (ES2000) was added to the solution, and the sample was stored under ambient conditions. The concentration of POAA and H2O2 were monitored by the iodometric conditions.

[3] = Catalase 0.5 ppm, Time 1 hr, run starting at 14.6 ppm POAA
[4] = Catalase 1.0 ppm, Time 1 hr, run starting at 30.1 ppm POAA

Row | Molecule | impact on the decomposition of hydrogen peroxide [1] | selectivity of H2O2 decomposition versus POAA stability [2] | H2O2(ppm) ([2]; Catalase 0.5 ppm, Time 0 hr, run starting at 14.6 ppm POAA) | H2O2(ppm) [2, 3] [ppm] | POAA (ppm) [2, 3] [ppm] | POAA (ppm) ([2]; Catalase 0.5 ppm, Time 1 hr, run starting at 31.1 ppm POAA) | H2O2(ppm) ([2]; Catalase 0.5 ppm, Time 2 hr, run starting at 14.6 ppm POAA) | H2O2(ppm) ([2]; Catalase 0.5 ppm, Time 2 hr, run starting at 31.1 ppm POAA) | H2O2(ppm) ([2]; Catalase 0.5 ppm, Time 3.6 hr, run starting at 14.6 ppm POAA) | H2O2(ppm) ([2]; Catalase 0.5 ppm, Time 3.6 hr, run starting at 31.1 ppm POAA) | H2O2(ppm) ([2]; Catalase 1.0 ppm, Time 1 hr, run starting at 14.8 ppm POAA) | H2O2(ppm) [2, 4] [ppm] | POAA (ppm) [2, 4] [ppm] | H2O2(ppm) ([2]; Catalase 1.0 ppm, Time 2 hr, run starting at 14.8 ppm POAA) | H2O2(ppm) ([2]; Catalase 1.0 ppm, Time 2 hr, run starting at 30.1 ppm POAA) | H2O2(ppm) ([2]; Catalase 1.0 ppm, Time 3.6 hr, run starting at 14.8 ppm POAA) | H2O2(ppm) ([2]; Catalase 1.0 ppm, Time 3.6 hr, run starting at 30.1 ppm POAA) | lowest catalase concentration treating pond water with POAA and H2O2 ([2]; within 4 hours, ambient conditions) [ppm]
1 | OCl [hypochlorite, sodium hypochlorite] | efficacious impact on the decomposition of hydrogen peroxide | – | – | – | – | – | – | – | – | – | – | – | – | – | – | – | – | –
2 | catalase | – | selectively decomposes the H2O2 without having any negative impact on POAA stability | 12.0 | 7.5 | 15.0 | 32.0 | 6.5 | 7.8 | 1.8 | 3.4 | 3.7 | 7.6 | 31.0 | 1.1 | 2.3 | 0.4 | 0.0 | 0.5
